Patent US20090305339A1, “Polypeptides With Laccase Activity” (VIALACTIA BIOSCIENCES (NZ) LIMITED, priority 2006, published 2009)

Tests used:
Type in all cases: biochemical
[1] = Laccase activity, 1-HBT as substrate
[2] = Decolorization of Poly R-478; conditions: Poly R-478 0.025%, pH 4.5, room temperature, 0.2 units enzyme, 3500 min
Method: Decolorization of Poly-R 478 (0.025 w/v) in the presence or absence of HOBt (1-Hydroxybenzotriazole) (0.9 mM) was determined spectrophotometrically (520 nm) at room temperature in 100 mM sodium phosphate buffer pH 4.5.

[3] = Oxidation of anthracene (HPLC, GC-MS/MS); conditions: 50 μM anthracene, HOBt, pH 4.5, overnight, room temperature
Method: (§1) Procedures for cloning, expression and purification of laccase are described in the reference: Beloqui, A., et al. (2006), which is made part of the disclosure of the present application.
HPLC conditions: the HPLC (Varian 9012) was provided with an automatic injector (Autosampler L2200, VWR Hitachi). 10 μL of sample reaction were injected to a C18 Nucleosil 3 μm, 80×4 mm, column (AV-2486, Analisis Vinicos S. A.). The mobile phase consisted of acetonitrile:water 70:30 (v/v) and the flow rate was controlled at 1 mL/min. A PhotoDiode Array Detector (Prostar 335, Varian) with the UV lamp fixed to 251 nm was used to detect the eluted compounds.

[4] = Laccase activity, violuric acid as substrate
[5] = pH- and temperature-dependent activity and inactivation profiles
Method: FIG. 2A represents the effect of various pH values on the activity of recombinant purified RL5 laccase. The activity was measured at 40° C. using 1 mM SGZ (syringaldazine) or DMP as substrate. The buffers (100 mM) used were: citrate (pH 3.0-5.5), MES (pH 5.5-7.0), HEPES (pH 7.0-8.0), Tris-HCl (pH 8.0-9.0) and glycine-NaOH (pH 9.0-12). The activity of RL5 for DMP reached an optimum at a broad pH ranging from 3.5-9.0, being optimal at 4.0-5.0; however, it maintained more than 70% activity at pH 3.5 and 9.0 (FIG. 2A).
FIG. 2B represents the pH inactivation of purified RL5 laccase in sodium citrate pH 4.5 (indicated with “∘”) or glycine-NaOH pH 9.0 (indicated with “[…]”) over a time period of 240 min. 100% activity in the purified protein sample equals 7.2 units/mg (measured at 40° C.).
FIG. 2C represents the effect of the temperature on the activity of recombinant purified RL5 laccase. The enzyme activity was assayed at each indicated temperature in sodium citrate pH 4.5 in the presence of 1 mM SGZ or DMP. Activity was monitored at 420 nm. Protein activity increased as the temperature was raised to a maximum at ˜60° C. Therefore, RL5 is stable at high temperatures.
FIG. 2D represents the thermal inactivation of purified RL5 laccase. Purified enzyme was incubated in vials at 60° C. ([…]) or 65° C. (∘). At the indicated times, samples were withdrawn and tested for laccase activity at 40° C. by using SGZ or DMP as a substrate. 100% activity in the purified protein sample equals 17.2 units/mg.
Corresponding experiments were performed with BT4389 and YfiH under conditions as described above for FIGS. 2A to 2D (data not shown). The activity of these enzymes reached an optimum at a temperature of 52° C. (for BT4389) and 44° C. (for YfiH) and the thermal activity maintained for more than 80% at 55° C. (for BT4389) and at 50° C. (for YfiH). The activity of both enzymes reached an optimum at a pH range from 4.5 to 6.0 (for BT4389) and from 5.5 to 8.4 (for YfiH), although 80% activity maintained at pH 4.0 to 7.5 (for BT4389) and 5.0 to 9.0 (for YfiH).
Laccase activity was determined spectrophotometrically in a thermostated spectrophotometer (Perkin-Elmer) at 40° C. in 100 mM sodium citrate buffer, pH 4.5 (1 ml). The standard assay was performed at 530 nm, using SGZ as the oxidation substrate (ε530=64,000 M^−1cm^−1). The reaction was started by adding SGZ, from a stock solution in methanol, to a final concentration of 20 μM. […] Oxidation of phenol red (75 μM) was determined by the decrease in absorbance at 432 nm. The activity:pH and activity:temperature relationships were determined by incubating the enzyme:substrate mixtures at different pH values and constant temperature (40° C.), and at different temperatures (15-80° C.) and constant pH (4.5), respectively. Catalytic constants were derived by fitting the experimental data onto the Michaelis-Menten model. Control measurements without enzyme were carried out to correct for possible chemical oxidation of the substrates.

[6] = Oxidation of benzo[a]pyrene (HPLC); conditions: 50 μM benzo[a]pyrene, HOBt, pH 4.5, overnight, room temperature
Source text: as §1
Benzo[a]pyrene was oxidized, however the oxidation products haven't been identified yet.

B1: RL5: polypeptide with laccase activity from bovine rumen metagenome library, amino acid sequence of FIG. 11 (protein)
chain: MIELEKLDFAKSVEGVEAFSTTRGQVDGRNAYSGVNLCDYVGDDALRVLDARLTLAMQLGVDLDDLVMPRQTHSCRVAVIDERFRALDIDEQEAALEGVDALVTRLQGIVIGVNTADCVPIVLVDSQAGIVAVSHAGWRGTVGRIAKAVVEEMCRQGATVDRIQAAMGPSICQDCFEVGDEVVEAFKKAHFNLNDIVVRNPATGKAHIDLRAANRAVLVAAGVPAANIVESQHCSRCEHTSFFSARRLGINSGRTFTGIYRK
modifications: Description of sequence Amino acid sequence of RL5 laccase 3217 to 2414 frame 1 - 262 amino acids (see Figure 11)
substrate of the laccase [1]: not substrates
Poly R-478 solution oxidized [2]: more than 70%
oxidation of anthracene [3]: efficiently oxidize anthracene to 9,10-antraquinone
substrate of the laccase [4]: not substrates
pH optimum of activity ([5]; 40° C., 1 mM substrate, 100 mM buffers): 4.0-5.0 pH
activity maintained at pH 3.5 and 9.0 ([5]; DMP, 40° C.): more than 70%
broad pH range of activity ([5]; DMP, 40° C.): 3.5-9.0 pH
thermal stability ([5]; incubated at 60° C. or 65° C.): highly stable at this temperatures over a long time period, for at least four hours
100% activity in the purified protein sample ([5]; pH inactivation experiment, measured at 40° C.): 7.2 units/mg
temperature optimum of activity ([5]; sodium citrate pH 4.5, 1 mM SGZ or DMP): ~60 °C
pH stability ([5]; sodium citrate pH 4.5 or glycine-NaOH pH 9.0, 240 min): highly stable over a long time period at these pHs
100% activity in the purified protein sample ([5]; thermal inactivation experiment, tested at 40° C., SGZ or DMP): 17.2 units/mg
oxidation of benzo[a]pyrene [6]: oxidized
